Assays:
[1] = biological target: T1, recombinant human DLL3 protein (human, UniProt Q9NYJ7 27-492, limits assumed); assay: SPR, control: individual binding construct
T1 construct: also called rhu DLL3; human biotinylated DLL3
T1 sequence (looked up): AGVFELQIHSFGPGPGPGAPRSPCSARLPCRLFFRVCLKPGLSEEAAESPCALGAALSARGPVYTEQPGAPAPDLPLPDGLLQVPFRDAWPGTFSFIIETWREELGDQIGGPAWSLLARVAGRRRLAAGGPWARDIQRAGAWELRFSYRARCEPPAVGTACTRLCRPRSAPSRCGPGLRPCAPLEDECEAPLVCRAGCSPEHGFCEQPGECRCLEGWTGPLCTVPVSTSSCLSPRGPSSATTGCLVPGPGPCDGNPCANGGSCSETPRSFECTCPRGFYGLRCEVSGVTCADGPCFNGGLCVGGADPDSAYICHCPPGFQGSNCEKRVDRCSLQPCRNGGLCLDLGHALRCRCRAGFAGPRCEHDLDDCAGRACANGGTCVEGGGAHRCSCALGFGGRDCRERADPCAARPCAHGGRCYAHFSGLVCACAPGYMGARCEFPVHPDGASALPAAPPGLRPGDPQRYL
Method: Surface Plasmon Resonance (SPR) was used to assess the binding kinetics and binding affinity. Kinetic rate coefficients were recovered from binding analysis experiments performed with a Biacore 3000 biosensor. Concentrations of the anti-DLL3/anti-CD3/anti-HSA trispecific binding construct ranging from 1.23 nM to 300 nM were run against the SPR sensorgram surfaces immobilized with recombinant human CD3 (rhu CD3) or recombinant HSA (rHSA). Concentrations of recombinant human DLL3 (rhu DLL3) ranging from 1.23 nM to 100 nM were run against the SPR sensorgram surface immobilized with the anti-DLL3/anti-CD3/anti-HSA trispecific binding construct. The association and dissociation phase data were globally fit to a 1:1 model to determine the association rate coefficient (kₒₙ), dissociation rate coefficient (koff), the Rmax value, and the dissociation constant (KD). Results were reported as the global fits to 1:1 model±standard error. The control groups were the three corresponding individual binding constructs. All three antigen binding domains in the trispecific binding construct retain binding to the corresponding antigen.

[2] = biological target: T2, DLL3 target antigen coated on Octet SA tips (binning experiment) (Homo sapiens (Human), UniProt Q9NYJ7 27-492, Probably biotinylated for capture on streptavidin (SA) tips. The site is not stated.); assay: Octet binning on DLL3-coated SA tips; competitor: 3HCE56
T2 sequence: T1 sequence (looked up)
Method: (§1) Antibody binning experiments were carried out for 5 anti-DLL3 VHHs and an anti-human DLL3 BiTE (SEQ ID NO: 756). The target antigen was coated on a series of Octet SA tips. Each series of tips was first soaked in a periplasmic extract containing one specific VHH. After the response signals reached saturation, the tips were transferred to a mix of PEs containing again the first VHH (at the same concentration) plus a different VHH (termed secondary VHH) for each tip of the series. Secondary VHH that still bind the target antigen in the presence of the first VHH will show an increased response, as compared to the binding response of the first VHH alone. This was repeated for each VHH as primary VHH until all VHH were tested against each other in both directions (as primary and as secondary binder). From the response data, the bins were deduced for each VHH. 2HCE117 and 3HCE4 show competition with the human DLL3 BiTEs, whereas 3HCE56 and 3HCE87 show a partial competition.

[3] = biological target: T2, DLL3 target antigen coated on Octet SA …; assay: Octet binning on DLL3-coated SA tips; competitor: 3HCE87
Method: as §1

[4] = biological target: T2, DLL3 target antigen coated on Octet SA …; assay: Octet binning on DLL3-coated SA tips; competitor: 2HCE117
Method: as §1

[5] = biological target: T2, DLL3 target antigen coated on Octet SA …; assay: Octet binning on DLL3-coated SA tips; competitor: DLL3 BiTEs
Method: as §1

DLL3 (ELISA DLL3) = biological target: T3, DLL3 (ELISA DLL3); assay: ELISA, ratio of the signal on DLL3 to the signal on the control
T3 construct: also called DLL3 protein in ELISA
T3 chain: T1 sequence (looked up)

[6] = biological target: T1, recombinant human DLL3 protein; assay: Fortebio Octet Red, DLL3 immobilised on tips, dilution series of the VHH, 1:1 binding model; koff error 6.05E-07; Full R2 0.9994
Method: Additional experiments were carried out to further characterize the binding properties of the anti-DLL3 constructs. Binding properties tested include dissociation constant (KD), off-rate (koff), binding to DLL3 protein by ELISA and binding to CHO cells expressing human, cyno or mouse DLL3. To obtain off-rate (koff), human biotinylated DLL3 was immobilized on Octet SA tips, and cynomolgus or mouse DLL3 was immobilized on Octet AR2G tips. For each DLL3 protein, the binding to a dilution series of each anti-DLL3 construct was measured using Fortebio Octet Red. The dissociation constant (KD), off-rate (koff) and other kinetic parameters for each anti-DLL3 construct were calculated using a 1:1 binding model. In addition, binding of these anti-DLL3 constructs to CHO cells expressing human, cyno or mouse DLL3 protein was analyzed using flow cytometry (FACS).

Kd [1]: 7.89 nM | koff [1]: 0.00064 s⁻¹ | kon [1]: 80000 M⁻¹ s⁻¹ | binning response (unit not given) [2]: 6500 | binning response (unit not given) [3]: 87.5 | binning response (unit not given) [4]: 19900 | binning response (unit not given) [5]: 83.4 | DLL3 / control (DLL3 (ELISA DLL3)): 33.3 | koff [6]: 0.000638 s⁻¹
B1: 2HCE27 anti-DLL3 VHH (VHH)
VHH: QVQLQESGGGLVQAGGSLRLSCAASGRTFRSYAMGWFRQAPGKEREFIAVIIMSDGSTSYADSVKGRFTISRDNAKNTLYLQMNSLKPEDTAVYYCAARRDYFTGVYDYWGQGTQVTVSS
notes: In the binning assay it was used as a periplasmic extract; also called anti-DLL3 (2HCE27)

Source: patent US20230227577A1 (MYTHIC THERAPEUTICS, published 2023)
